Consider 16 molecules from patent US20140154255A1 (AbbVie / Abbott, published 2014).

Residue numbers refer to the chain shown, from its start.

Experiment [1] addresses T1, human VEGF-A residues 27-191 of Accession #AAV38412 (human, UniProt P15692 27-191).
T1 construct: range 27-191
Kind of experiment: BIAcore SPR. As for the experimental part:
(§1) The binding kinetics and affinity of the antibodies for VEGF (human VEGF-A residues 27-191 of Accession #AAV38412) was determined by using a BIAcore T200 surface plasmon resonance system (BIAcore, GE Healthcare, Piscataway, N.J.). Coupling running buffer was HBS-EP+ running buffer (10 mM HEPES, 150 mM sodium chloride, 3 mM EDTA 0.05% P-20, pH 7.4); assay running buffer was HBS-EP+ with 300 mM sodium chloride and 0.1 mg/mL BSA (Sigma A7906). Polyclonal goat anti-human Fc (Thermo Scientific prod#31125) was first immobilized to the biosensor surface in 10 mM sodium acetate, pH 4.5 using standard BIAcore amine coupling reagents (N-ethyl-N′-dimethylamino-propylcarbodiimide, EDC; N-hydroxysuccinimide, NHS; and ethanolamine HCl, pH 8.5). For binding kinetics assay a series of cycles were performed, each cycle consisted of 1) mAb capture, 2) Ag or buffer injection, 3) dissociation phase and 4) regeneration. Briefly, anti-VEGF antibodies were captured on parallel surfaces at a low flow rate of 10 μL/min. Capture levels were kept low to minimize avidity due to the dimeric nature of VEGF. No capture of the antibody was made on the reference surface to serve for primary referencing and as a negative control. Subsequently, VEGF or buffer only was injected to all flow cells at a flow rate of 80 μL/min for three minutes to monitor association followed by a 20-minute flow of assay rinning buffer at a flow rate of 80 μL/min to monitor dissociation. […] At the end of each cycle the surface was regenerated with 10 mM glycine, pH 1.5 at a flow rate of 60 μL/min in pulses of 60 and 10 sec. Binding data were fit to the 1:1 Langmuir model with mass transport term included using Biacore T200 Evaluation Software to determine the binding constants.
For orientation: In SPR one partner is held on a chip, and binding of the other changes the refractive index at the surface.

Experiment [2] deals with T1, human VEGF-A residues 27-191 of …. The experiment can be described thus: BIAcore SPR, KD WT/KD mutant. The procedure:
as §1

Experiment [3] has as its target T2, unlabeled human VEGF (ELISA coat) (human, UniProt P15692-4 27-191, limits assumed). The experiment can be described thus: ELISA 1 hr, EC50 WT/EC50 mutant. As for the experimental part:
(§2) To detect identified variants binding to antigen, ELISA plates (Nunc-Immuno MaxiSorp plates, Nalge Nunc, Rochester, N.Y.) were coated overnight at 4° C. with unlabeled human VEGF at 1 μg/mL in 0.2 M sodium carbonate-bicarbonate buffer (pH 9.4, Pierce, Rockford, Ill.). The plates were then blocked with SuperBlock Blocking Buffer (Pierce, Rockford, Ill.) for 30 min and washed with Washing Buffer (PBS containing 0.1% Tween 20). All the washing steps were performed for three times. […] The plates were washed and 100 μL of goat anti-human kappa HRP-conjugated antibody (Southern Biotech, Birmingham, Ala.) diluted at 1:1000 in ELISA buffer was added to each well. After 30 minutes of incubation, plates were washed and bound antibodies were detected by addition of TMB 1 Component HRP Microwell substrate (BioFx #TMBW-1000-01). The reaction was terminated by addition of 100 μL/well of 650 nM Stop Reagent for TMB Microwell substrate and the absorbance was measured at 650 nm using a VERSAmax microplate reader (Molecular Devices, Sunnyvale, Calif.). Data were fitted using nonlinear regression with the software […]

Experiment [4] concerns the target T2, unlabeled human VEGF (ELISA coat). The experiment can be described thus: ELISA overnight, EC50 WT/EC50 mutant. The procedure:
as §2

T1 sequence (P15692 other isoform, or with tags, fused parts or gaps limits assumed): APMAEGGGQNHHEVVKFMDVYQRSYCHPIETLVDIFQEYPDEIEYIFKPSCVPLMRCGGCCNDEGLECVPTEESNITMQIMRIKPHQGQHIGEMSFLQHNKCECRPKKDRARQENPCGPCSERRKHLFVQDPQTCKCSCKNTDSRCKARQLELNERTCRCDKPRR
T2 sequence (P15692 other isoform, or with tags, fused parts or gaps limits assumed): as above

B1: T30 K (anti-VEGF IgG) (antibody, V domains shown)
VH: EVQLVESGGGLVQPGGSLRLSCAASGYTFKNYGMNWVRQAPGKGLEWVGWINTYTGEPTYAADFKRRFTFSLDTSKSTAYLQMNSLRAEDTAVYYCAKYPHYYGSSHWYFDVWGQGTLVTVSS
VL: DIQMTQSPSSLSASVGDRVTITCSASQDISNYLNWYQQKPGKAPKVLIYFTSSLHSGVPSRFSGSGSGTDFTLTISSLQPEDFATYYCQQYSTVPWTFGQGTKVEIK
notes: copies: 2 + 2
In experiment [1], B1 gave a Kd of 0.92 nM, an off-rate constant (koff) of 8.53e-05 s⁻¹ and an on-rate constant (kon) of 92800 M⁻¹ s⁻¹. Besides, the affinity improvement in experiment [2] came to 0.5 fold. The “ELISA 1hr binding” value in experiment [3] was found to be 2.5 fold. In experiment [4], this molecule displayed an ELISA o/n binding of 3.1 fold.

B2: T30 R (anti-VEGF IgG) (antibody, V domains shown)
VH: B1 VH with K30R
VL: B1 VL
notes: copies: 2 + 2
In experiment [1], B2 yielded a Kd of 0.644 nM, a koff of 6.76e-05 s⁻¹ and a kon of 105000 M⁻¹ s⁻¹. This molecule also returned an affinity improvement in experiment [2] of 1.3 fold. Besides, the “ELISA 1hr binding” value in experiment [3] worked out at 2.9 fold. The ELISA o/n binding in experiment [4] is 3.2 fold.

B3: S100a Q (anti-VEGF IgG) (antibody, V domains shown)
VH: B1 VH with K30T, S105Q
VL: B1 VL
notes: copies: 2 + 2
In the case of B3, in experiment [1], the Kd came to 0.451 nM, the off-rate constant (koff) turned out to be 6.04e-05 s⁻¹ and the kon was found to be 134000 M⁻¹ s⁻¹. Besides, in experiment [2], the affinity improvement is 1.1 fold. Moreover, the “ELISA 1hr binding” value in experiment [3] worked out at 3.7 fold. Moreover, the ELISA o/n binding in experiment [4] came to 3.6 fold.

B4: S100a T (anti-VEGF IgG) (antibody, V domains shown)
VH: B1 VH with K30T, S105T
VL: B1 VL
notes: copies: 2 + 2
As to B4, in experiment [1], binding was put at a Kd of 0.197 nM, the off-rate constant (koff) came to 4.15e-05 s⁻¹ and the kon worked out at 211000 M⁻¹ s⁻¹. The same molecule registered an affinity improvement in experiment [2] of 2.2 fold. Moreover, in experiment [3], the “ELISA 1hr binding” value came out at 2.3 fold. This molecule also came in with an ELISA o/n binding in experiment [4] of 2.7 fold.

B5: S100a A (anti-VEGF IgG) (antibody, V domains shown)
VH: B1 VH with K30T, S105A
VL: B1 VL
notes: copies: 2 + 2
In experiment [1], B5 showed a Kd of 0.337 nM, a koff of 7.68e-05 s⁻¹ and a kon of 228000 M⁻¹ s⁻¹. Moreover, in experiment [2], the affinity improvement amounted to 1.3 fold. In experiment [3], the “ELISA 1hr binding” value turned out to be 2.2 fold. In addition, the ELISA o/n binding in experiment [4] came to 2.1 fold.

B6: N31 L (anti-VEGF IgG) (antibody, V domains shown)
VH: B1 VH with K30T, N31L
VL: B1 VL
notes: copies: 2 + 2
In experiment [1], B6 gave a Kd of 0.278 nM, a koff of 6.05e-05 s⁻¹ and a kon of 218000 M⁻¹ s⁻¹. Moreover, the affinity improvement in experiment [2] stood at 1.8 fold. Besides, the “ELISA 1hr binding” value in experiment [3] stood at 1.1 fold. In addition, the ELISA o/n binding in experiment [4] was found to be 1.1 fold.

B7: N31 Y (anti-VEGF IgG) (antibody, V domains shown)
VH: B1 VH with K30T, N31Y
VL: B1 VL
notes: copies: 2 + 2
For B7, in experiment [1], binding was characterised by a dissociation constant (Kd) of 0.077 nM, the koff is 1.77e-05 s⁻¹ and the kon amounted to 230000 M⁻¹ s⁻¹. The affinity improvement in experiment [2] was found to be 6.6 fold. Moreover, the “ELISA 1hr binding” value in experiment [3] was found to be 3 fold. This molecule also returned an ELISA o/n binding in experiment [4] of 1.5 fold.

B8: H97 A (anti-VEGF IgG) (antibody, V domains shown)
VH: B1 VH with K30T, H101A
VL: B1 VL
notes: copies: 2 + 2
In experiment [1], B8 showed a dissociation constant Kd of 2.2 nM, a koff of 0.000451 s⁻¹ and an association rate constant (kon) of 205000 M⁻¹ s⁻¹. The molecule also returned an affinity improvement in experiment [2] of 0.2 fold. Besides, the “ELISA 1hr binding” value in experiment [3] amounted to 4 fold. In experiment [4], this molecule had an ELISA o/n binding of 3.4 fold.

B9: T30 W (anti-VEGF IgG) (antibody, V domains shown)
VH: B1 VH with K30W
VL: B1 VL
notes: copies: 2 + 2
On to B9, for which, in experiment [1], the Kd was found to be 0.309 nM, the koff worked out at 5.74e-05 s⁻¹ and the kon was 186000 M⁻¹ s⁻¹. In experiment [2], this molecule returned an affinity improvement of 1.6 fold. The “ELISA 1hr binding” value in experiment [3] was 2.9 fold. In addition, the ELISA o/n binding in experiment [4] was determined as 4.5 fold.

B10: N31 W (anti-VEGF IgG) (antibody, V domains shown)
VH: B1 VH with K30T, N31W
VL: B1 VL
notes: copies: 2 + 2
In experiment [1], B10 yielded a Kd of 0.164 nM, a koff of 3.42e-05 s⁻¹ and a kon of 209000 M⁻¹ s⁻¹. In experiment [2], this molecule returned an affinity improvement of 3.1 fold. Moreover, the “ELISA 1hr binding” value in experiment [3] stood at 2.1 fold. This molecule also yielded an ELISA o/n binding in experiment [4] of 1.3 fold.

B11: T30 N (anti-VEGF IgG) (antibody, V domains shown)
VH: B1 VH with K30N
VL: B1 VL
notes: copies: 2 + 2
Take B11: in experiment [1], the affinity, expressed as Kd, was 0.303 nM; the koff was 5.14e-05 s⁻¹; the kon turned out to be 170000 M⁻¹ s⁻¹. Moreover, the affinity improvement in experiment [2] is 1.7 fold. In addition, the “ELISA 1hr binding” value in experiment [3] turned out to be 2.4 fold. In experiment [4], this molecule gave an ELISA o/n binding of 4 fold.

B12: S100a G (anti-VEGF IgG) (antibody, V domains shown)
VH: B1 VH with K30T, S105G
VL: B1 VL
notes: copies: 2 + 2
In experiment [1], B12 showed a Kd of 0.602 nM, a koff of 0.000133 s⁻¹ and a kon of 221000 M⁻¹ s⁻¹. Also, in experiment [2], the affinity improvement was 0.8 fold. Moreover, in experiment [3], the “ELISA 1hr binding” value came out at 3.7 fold. In addition, the ELISA o/n binding in experiment [4] stood at 3.7 fold.

B13: N31 H (anti-VEGF IgG) (antibody, V domains shown)
VH: B1 VH with K30T, N31H
VL: B1 VL
notes: copies: 2 + 2
In experiment [1], B13 displayed a Kd of 0.172 nM, a koff of 3.17e-05 s⁻¹ and an on-rate (kon) of 184000 M⁻¹ s⁻¹. The same molecule yielded an affinity improvement in experiment [2] of 2.5 fold. Moreover, in experiment [3], the “ELISA 1hr binding” value amounted to 2.2 fold. The same molecule showed an ELISA o/n binding in experiment [4] of 1.9 fold.

B14: T28 G (anti-VEGF IgG) (antibody, V domains shown)
VH: B1 VH with T28G, K30T
VL: B1 VL
notes: copies: 2 + 2
In experiment [1], B14 showed a Kd of 0.374 nM, a koff of 4.97e-05 s⁻¹ and a kon of 133000 M⁻¹ s⁻¹. In experiment [2], this molecule had an affinity improvement of 1.3 fold. The “ELISA 1hr binding” value in experiment [3] was 5.4 fold. The molecule further returned an ELISA o/n binding in experiment [4] of 3.9 fold.

B15: T28 R (anti-VEGF IgG) (antibody, V domains shown)
VH: B1 VH with T28R, K30T
VL: B1 VL
notes: copies: 2 + 2
In experiment [1], B15 had a Kd of 0.675 nM, a koff of 6.44e-05 s⁻¹ and a kon of 95400 M⁻¹ s⁻¹. Besides, the affinity improvement in experiment [2] was 0.6 fold. In experiment [3], the “ELISA 1hr binding” value turned out to be 1.4 fold. Moreover, in experiment [4], the ELISA o/n binding was 1.8 fold.

B16: T28 Y (anti-VEGF IgG) (antibody, V domains shown)
VH: B1 VH with T28Y, K30T
VL: B1 VL
notes: copies: 2 + 2
Consider B16, for which, in experiment [1], the dissociation constant (Kd) is 0.52 nM, the koff amounted to 6.32e-05 s⁻¹ and the kon turned out to be 122000 M⁻¹ s⁻¹. Also, the affinity improvement in experiment [2] was determined as 1 fold. In experiment [3], the “ELISA 1hr binding” value was found to be 5.2 fold. This molecule also gave an ELISA o/n binding in experiment [4] of 3.4 fold.

As usually defined, the Kd is the constant that tells how readily two partners part at equilibrium. Higher therefore signals a looser complex. For orientation: koff means a measure of how fast the partners let go of each other. A high value points to a short-lived complex. One may read the kon as a measure of how fast the partners come together. A lower kon goes with slower complex formation.
